In patent publication US5837516A, “Subtilisin variants capable of cleaving substrates containing basic residues” (Genentech, Inc., priority 1995, dated 1998):
One block for each binder: values may come before it.

Tests used:
succinyl-AAKR-pNA = target: T1, succinyl-AAKR-pNA
T1 sequence (peptide, N-terminal succinyl; C-terminal p-nitroanilide (pNA)): AAKR

succinyl-AAPF-pNA = target: T2, succinyl-AAPF-pNA
T2 sequence (peptide, N-terminal succinyl; C-terminal p-nitroanilide (pNA)): AAPF

succinyl-KAKR-pNA = target: T3, succinyl-KAKR-pNA
T3 sequence (peptide, N-terminal succinyl; C-terminal p-nitroanilide (pNA)): KAKR

succinyl-RAKR-pNA = target: T4, succinyl-RAKR-pNA
T4 sequence (peptide, N-terminal succinyl; C-terminal p-nitroanilide (pNA)): RAKR

[1] = substrate: C[C@H](NC(=O)CCC(=O)O)C(=O)N[C@@H](C)C(=O)N[C@@H](CCCCN)C(=O)N[C@@H](CCCNC(=N)N)C(=O)Nc1ccc([N+](=O)[O-])cc1; test: Kinetic analysis, hydrolysis of succinyl-tetrapeptide-pNA substrates; assay type: biochemical, Bacillus amyloliquefaciens; settings: 20 mM Tris-Cl pH 8.2, 4% DMSO, 25 C
Method: (§1) The mature N62D/Y104D/G166D variant was purified and analyzed for its ability to hydrolyze several tetrapeptide-pNA substrates.
(§2) Kinetic analysis of WT, N62D/G166D, and N62D/Y104D/G166D subtilisin BPN'
(§3) Subtilisins were assayed by measuring the initial rates of hydrolysis of p-nitroanilide tetrapeptide substrates in 0.4 mL 20 mM Tris-Cl pH 8.2, 4% (v/v) dimethyl sulfoxide at (25±0.2)° C. as described previously (Estell, D. A., Graycar, T. P., Miller, J. V., Powers, D. B., Burnier, J. P., Ng, P. G. and Wells, J. A. (1986)Science 233:659-663). Enzyme concentrations (E)0 were determined spectrophotometrically using E280 nm 0.1%=1.17 (Matsubara, H.; Kasper, C B.; Brown, D. M.; and Smith, E. L. (1965)J. Biol. Chem.,240:1125-1130.), and were typically 5-50 nM in reactions. Initial rates were determined for nine to twelve different substrate concentrations over the range of 0.001-2.0 mM. Plots of initial rates (v) versus substrate concentration (S) were fitted to the Michaelis-Menton equation, [formula] to determine the kinetic constants kcat and Km (Fersht, A. in "Enzyme Structure and Mechanism", Second edition, Freeman and Co., N.Y.) using the program Kaleidagraph (Synergy Software, Reading, Pa.).

[2] = substrate: C[C@H](NC(=O)[C@H](CCCCN)NC(=O)CCC(=O)O)C(=O)N[C@@H](CCCCN)C(=O)N[C@@H](CCCNC(=N)N)C(=O)Nc1ccc([N+](=O)[O-])cc1; test: as above; assay type: biochemical, Bacillus amyloliquefaciens; settings: other: N62D/Y104D/G166D, 20 mM Tris-Cl pH 8.2, 4% DMSO, 25 C
Method: as §1, §2, §3

[3] = substrate: C[C@H](NC(=O)[C@H](CCCNC(=N)N)NC(=O)CCC(=O)O)C(=O)N[C@@H](CCCCN)C(=O)N[C@@H](CCCNC(=N)N)C(=O)Nc1ccc([N+](=O)[O-])cc1; test: as above; assay type: biochemical, Bacillus amyloliquefaciens; settings: other: N62D/Y104D/G166D, 20 mM Tris-Cl pH 8.2, 4% DMSO, 25 C
Method: as §1, §2, §3

[4] = target: T5, succinyl-Ala-Ala-Lys-Lys-pNa
T5 sequence (peptide, N-terminal succinyl; C-terminal p-nitroanilide (pNA)): AAKK

[5] = target: T6, succinyl-Ala-Ala-Pro-Lys-pNa
T6 sequence (peptide, N-terminal succinyl; C-terminal p-nitroanilide (pNA)): AAPK

[6] = target: hGH-AP fusion protein with substrate linker Asn-Leu-Met-Arg-Lys (E. coli); settings: scale: times faster than the Thr-Ala-Ser-Arg-Arg and Asn-Leu-Thr-Ala-Arg fusions
[7] = substrate: C[C@H](NC(=O)CCC(=O)O)C(=O)N[C@@H](C)C(=O)N1CCC[C@H]1C(=O)N[C@@H](Cc1ccccc1)C(=O)Nc1ccc([N+](=O)[O-])cc1; test: Kinetic analysis, hydrolysis of succinyl-tetrapeptide-pNA substrates; assay type: biochemical, Bacillus amyloliquefaciens; settings: other: N62D/G166D, 20 mM Tris-Cl pH 8.2, 4% DMSO, 25 C
Method: as §1, §2, §3

B3: subtilisin BPN' variant G166D (enzyme)
chain: AQSVPYGVSQIKAPALHSQGYTGSNVKVAVIDSGIDSSHPDLKVAGGASMVPSETNPFQDNNSHGTHVAGTVAALNNSIGVLGVAPSASLYAVKVLGADGSGQYSWIINGIEWAIANNMDVINMSLGGPSGSAALKAAVDKAVASGVVVVAAAGNEGTSGSSSTVDYPGKYPSVIAVGAVDSSNQRASFSSVGPELDVMAPGVSIQSTLPGNKYGAYNGTSMASPHVAGAAALILSKHPNWTNTQVRSSLENTTTKLGDSFYYGKGLINVQAAAQ
ratio of catalytic efficiencies, hydrolysis of succinyl-tetrapeptide-pNA (times faster than the Phe P1 substrate) [5]: 3

B4: subtilisin BPN' variant N62D/G166D (mature enzyme SEQ ID NO: 72) (Bacillus amyloliquefaciens; G273D/N169D) (protein)
chain: AQSVPYGVSQIKAPALHSQGYTGSNVKVAVIDSGIDSSHPDLKVAGGASMVPSETNPFQDNDSHGTHVAGTVAALNNSIGVLGVAPSASLYAVKVLGADGSGQYSWIINGIEWAIANNMDVINMSLGGPSGSAALKAAVDKAVASGVVVVAAAGNEGTSGSSSTVDYPGKYPSVIAVGAVDSSNQRASFSSVGPELDVMAPGVSIQSTLPGNKYGAYNGTSMASPHVAGAAALILSKHPNWTNTQVRSSLENTTTKLGDSFYYGKGLINVQAAAQ
notes: made in house; host or cells: Bacillus subtilis BG2036 (protease-deficient), secreted
kcat/Km, hydrolysis of succinyl-tetrapeptide-pNA (succinyl-AAKR-pNA): 370000 M⁻¹ s⁻¹
kcat/Km, hydrolysis of succinyl-tetrapeptide-pNA (succinyl-AAPF-pNA): 1900 M⁻¹ s⁻¹
ratio of catalytic efficiencies, hydrolysis of succinyl-tetrapeptide-pNA (times faster than a Lys-Phe substrate) [4]: 18
rate of cleavage of the fusion protein from the hGH receptor plate (released AP activity) [6]: 10
Km [7]: 1800 µM
kcat [7]: 3.4 s⁻¹
kcat/Km [7]: 1900 M⁻¹ s⁻¹
Km ([1]; other: N62D/G166D): 41 µM
kcat ([1]; other: N62D/G166D): 15 s⁻¹
kcat/Km ([1]; other: N62D/G166D): 370000 M⁻¹ s⁻¹

Second part, led by results:

kcat/Km, hydrolysis of succinyl-tetrapeptide-pNA (succinyl-AAKR-pNA): 8100 M⁻¹ s⁻¹
kcat/Km, hydrolysis of succinyl-tetrapeptide-pNA (succinyl-AAPF-pNA): 8 M⁻¹ s⁻¹
kcat/Km, hydrolysis of succinyl-tetrapeptide-pNA (succinyl-KAKR-pNA): 340000 M⁻¹ s⁻¹
kcat/Km, hydrolysis of succinyl-tetrapeptide-pNA (succinyl-RAKR-pNA): 490000 M⁻¹ s⁻¹
B1: subtilisin BPN' variant N62D/Y104D/G166D (SEQ ID NO: 75) (Bacillus amyloliquefaciens; G273D/N169D/Y211D) (protein)
chain: AQSVPYGVSQIKAPALHSQGYTGSNVKVAVIDSGIDSSHPDLKVAGGASMVPSETNPFQDNDSHGTHVAGTVAALNNSIGVLGVAPSASLYAVKVLGADGSGQDSWIINGIEWAIANNMDVINMSLGGPSGSAALKAAVDKAVASGVVVVAAAGNEGTSGSSSTVDYPGKYPSVIAVGAVDSSNQRASFSSVGPELDVMAPGVSIQSTLPGNKYGAYNGTSMASPHVAGAAALILSKHPNWTNTQVRSSLENTTTKLGDSFYYGKGLINVQAAAQ
notes: the mature enzyme +1 to +275; made in house; host or cells: Bacillus subtilis BG2036 (protease-deficient), secreted
Km ([1]; other: N62D/Y104D/G166D): 34 µM
kcat ([1]; other: N62D/Y104D/G166D): 0.27 s⁻¹
kcat/Km ([1]; other: N62D/Y104D/G166D): 8100 M⁻¹ s⁻¹
Km [2]: 29 µM
kcat [2]: 9.8 s⁻¹
kcat/Km [2]: 340000 M⁻¹ s⁻¹
Km [3]: 23 µM
kcat [3]: 11 s⁻¹
kcat/Km [3]: 490000 M⁻¹ s⁻¹

ratio of catalytic efficiencies, hydrolysis of succinyl-tetrapeptide-pNA (times faster than the Lys-Phe substrate) [4]: 8
B2: subtilisin BPN' variant N62D/G166E (enzyme)
chain: AQSVPYGVSQIKAPALHSQGYTGSNVKVAVIDSGIDSSHPDLKVAGGASMVPSETNPFQDNDSHGTHVAGTVAALNNSIGVLGVAPSASLYAVKVLGADGSGQYSWIINGIEWAIANNMDVINMSLGGPSGSAALKAAVDKAVASGVVVVAAAGNEGTSGSSSTVEYPGKYPSVIAVGAVDSSNQRASFSSVGPELDVMAPGVSIQSTLPGNKYGAYNGTSMASPHVAGAAALILSKHPNWTNTQVRSSLENTTTKLGDSFYYGKGLINVQAAAQ
